This is an account of results in patent US10272117B2, “Methods of using an activator of cereblon for neural cell expansion and the treatment of central nervous system disorders” (Celgene Corporation, priority 2014, dated 2019).

The subject of the data set is zebrafish embryos. Nature of the data set: Brain size, morphology and volume of zebrafish embryos (microscopy, MRI). The settings on record: for brain development: 22 hpf. It counts as in vivo. How it is done: An aqueous solution of a 25-mer antisense morpholino oligonucleotide (AMO, Gene Tools, LLC) corresponding to the vicinity of the translation initiation codon in the cDNA sequence of the gene to be knocked down ([…] injection conditions were the same as those used for RNA) was injected into the embryos at the 1-cell stage. The sequence of AMO used for the CRBN gene knockdown is 5′-[…]-3′ (SEQ ID NO: 3). The sequence of AMO used for the Lhx2 gene knockdown is 5′-[…]-3′ (SEQ ID NO:4). The sequence of AMO used for the BRD7 gene knockdown is 5′-[…]-3′ (SEQ ID NO:1). The sequence of AMO used for the Ikaros gene knockdown is 5′-[…]-3′ (SEQ ID NO:2). […]
In order to examine the effect of antagonists of BRD7 on brain growth, BRD7 was knocked down or over-expressed in zebrafish embryos. Knockdown of BRD7 was performed by microinjection of antisense morpholino oligonucleotides (AMO). Overexpression of BRD7 was performed by microinjection of synthesized capped mRNA. AMO or capped mRNA was introduced into one-cell stage embryos by using a nitrogen gas-pressure microinjector IM 300 (Narishige). Conditions for microinjection were as follows: gas pressure was about 15 picosiemens; release period was about 30 to about 50 milliseconds per single injection; concentrations of AMOs and capped mRNA were 400 ng/μl and 250 ng/μl in nuclease-free water, respectively. Capped mRNAs were synthesized in vitro using the mMESSAGE mMachine® in vitro transcription kit (Ambion) from cDNAs cloned into pCS2+ plasmids.
The brains of the embryos were examined for morphology and volume by magnetic resonance imaging (MRI). FIGS. 9A, 9B, and 9C show microscopic pictures of the untreated, the BRD7-knockdown, and the BRD7-overexpressing zebrafish embryos, respectively. FIGS. 9D, 9E, and 9F show fluorescent microscopic pictures of the brain regions of the untreated, the BRD7-knockdown, and the BRD7-overexpressing zebrafish embryos, respectively. As shown in these figures, the BRD7-knockdown zebrafish embryos had bigger heads than the untreated embryos. […] The volume of the whole brain of the BRD7-knockdown fish was much bigger than that of the untreated fish, while for the BRD7-overexpressing fish, the brain volume was smaller.
In order to examine the effect of antagonists of Ikaros on brain growth, Ikaros was knocked down or over-expressed in zebrafish embryos. Knockdown of Ikaros was performed by microinjection of antisense morpholino oligonucleotides (AMO). Overexpression of Ikaros was performed by injection of synthesized capped mRNA. AMO or capped mRNA was introduced into one-cell stage embryos by using a nitrogen gas-pressure microinjector IM 300 (Narishige). Conditions for microinjection were as follows: gas pressure was about 15 picosiemens; release period was about 30 to about 50 milliseconds per single injection; concentrations of AMOs and capped mRNA were 400 ng/μl and 250 ng/μl in nuclease-free water, respectively. Capped mRNAs were synthesized in vitro using the mMESSAGE mMachine® in vitro transcription kit (Ambion) from cDNAs cloned into pCS2+ plasmids.
The brains of the embryos were examined for morphology and volume by magnetic resonance imaging (MRI). FIGS. 15A, 15B, and 15C show microscopic pictures of untreated, Ikaros-knockdown, and Ikaros-overexpressing zebrafish embryos at 55 hpf, respectively. As shown in these figures, the Ikaros-knockdown fish had bigger heads than the untreated embryos. […] The volume of the whole brain of the Ikaros-knockdown fish was much bigger than that of the untreated fish, while for the Ikaros-overexpressing fish, the brain volume was smaller.

In the case of “5′-TCTGCAACCCAAGATTTCCGTGAGA-3′ (all phosphorodiamidate morpholino (PMO)) [lhx2 gene-knockdown, 25-mer antisense morpholino oligonucleotide (AMO) used for the Lhx2 gene knockdown, reference compound]”, the “brain size compared to the normal embryo” value (FIG. 1) is reported as “brain shrinkage”.

B1: ikzf1-006: Ikaros variant lacking exon 7, overexpressed as fused Ikzf1:EGFP protein in zebrafish embryos (nucleic acid)
DNA: ATGGAGACTGAGGAGGCACAGGAAATGTCCCAGATAACAGGAAGAGACAGCCCGATGAATGCTAATGAAGGCGGAGAGGATCAAGATGAGGCCATGCCTGTTCCTGAAGACTTGTCAGCAAGCACTGGCCTCCAACACAACAATCGCACAGATAAACCACTGGCCTGTAATATAAAAGTTGAGGCTCGGAGTGACGAGGAAAACGGTCTGTCCTGTGAGATGAATGGAGAGGCAGAGGAATGTGCAGCTGAGGACTTGCGCATACTCGATGGCTCTGGGGCCAAAGTGAACGGCTCCCACGCAGGCCCCGACAGCAAGCCGGCCGCCTACCCCACAGCCGGGGGCATCCGCCTCCCCAACGGGAAGCTGAAGTGCGATATCTGTGGGATAGTTTGCATTGGGCCCAATGTGTTGATGGTTCACAAGCGAAGTCACACTGAAGAAAGAAAGTCAGTTTTGGAACAACAAAAAGGTGAAAGGCCATTCCAGTGCAATCAATGTGGTGCTTCATTCACTCAGAAGGGTAACCTGCTCCGACACATCAAACTTCACTCTGGCGAGAAACCTTTCAAATGTCACCTGTGCAACTATGCTTGCCGCCGCAGAGACGCTCTCACTGGACATCTGCGCACTCATTCGGTTGGAAAGCCCCATAAGTGTGCATATTGCGGACGCAGTTACAAGCAGCGGAGCTCACTGGAGGAACATAAGGAGAGATGTCACAACTACTTGCAGTGCATGGGCCTTCAGAACAGCATTTATACAGGAGAGAATCGTCTGTCAGAGCTATCTTTCGAGAGTGGCTCANGTGAGCTGATGCAGCCCCATGTGATTGATCAGGCCATCAACAGTGCAATTAGCTATCTGGGTGCAGAGTCCTTGCGGCCTCTGGTTCAGACCTCTCCTGGGTCCGCCGACATGGTGGTCAGCCCTCTATACAACCTGCACAAGTCACAAACAGCTGAAGGCAATGGTGTTTCTGCTAAAGACAGCGCCGCAGAGCACCTTCTCCTACTCTCTAAGTCCAAATCCGCCTCTGTTGACAAAGACGGTTCCCCCAGTCCCAGCGGGCAGGATTCCACTGACACTGAGAGCAACAACGAGGAGCGTTCGGCCGGGGTAAGCGGAACAGCAGCCACAGGTGGTCTCATCTACCTGACCAACCACATGGCTCCAGGTATGAGAAATGGAGGCCTGCCAGGGGTAAAGGAAGAACAACACCGGCAGTTTGAGGCTTTGCGAGCAGCAGGAATGGATTTGAGTATAGCGTCATCAGAAGGATTTAAGGTGCTAAGTGGAGATGGAGAAGAATTGAGGGCGTACCGCTGTATCCACTGCAGAGTTTTGTTCCTGGATCATGTCATGTACACCATCCACATGGGCTGTCATGGCTTCCGAGACCCCTTTGAGTGCAACCTATGCGGGTACCGCAGTCAGGACCGTTATGAGTTCTCATCGCACATCACACGTGGAGAGCACCGCATCTGA
modifications: fused to EGFP; nucleotide sequence of ikzf1-006 Ikaros variant; 808 n = A,T,C or G
notes: Ikaros variant lacking exon 7, overexpressed as fused Ikzf1:EGFP protein in zebrafish embryos
With B1, the brain development entry is recorded as “reduction of brain development”.

B2: ikzf1-007: Ikaros variant lacking exons 4 and 7, overexpressed as fused Ikzf1:EGFP protein in zebrafish embryos (nucleic acid)
DNA: ATGGAGACTGAGGAGGCACAGGAAATGTCCCAGATAACAGGAAGAGACAGCCCGATGAATGCTAATGAAGGCGGAGAGGATCAAGATGAGGCCATGCCTGTTCCTGAAGACTTGTCAGCAAGCACTGGCCTCCAACACAACAATCGCACAGATAAACCACTGGCCTGTAATATAAAAGTTGAGGCTCGGAGTGACGAGGAAAACGGTCTGTCCTGTGAGATGAATGGAGAGGCAGAGGAATGTGCAGCTGAGGACTTGCGCATACTCGATGGCTCTGGGGCCAAAGTGAACGGCTCCCACGCAGGCCCCGACAGCAAGCCGGCCGCCTACCCCACAGCCGGGGGCATCCGCCTCCCCAACGGGAAGCTGAAGTGCGATATCTGTGGGATAGTTTGCATTGGGCCCAATGTGTTGATGGTTCACAAGCGAAGTCACACTGGTGAAAGGCCATTCCAGTGCAATCAATGTGGTGCTTCATTCACTCAGAAGGGTAACCTGCTCCGACACATCAAACTTCACTCTGGCGAGAAACCTTTCAAATGTCACCTGTGCAACTATGCTTGCCGCCGCAGAGACGCTCTCACTGGACATCTGCGCACTCATTCGGTTGGAAAGCCCCATAAGTGTGCATATTGCGGACGCAGTTACAAGCAGCGGAGCTCACTGGAGGAACATAAGGAGAGATGTCACAACTACTTGCAGTGCATGGGCCTTCAGAACAGCATTTATACAGGAGAGAATCGTCTGTCAGAGCTATCTTTCGAGAGTGGCTCANGTGAGCTGATGCAGCCCCATGTGATTGATCAGGCCATCAACAGTGCAATTAGCTATCTGGGTGCAGAGTCCTTGCGGCCTCTGGTTCAGACCTCTCCTGGGTCCGCCGACATGGTGGTCAGCCCTCTATACAACCTGCACAAGTCACAAACAGCTGAAGGCAATGGTGTTTCTGCTAAAGACAGCGCCGCAGAGCACCTTCTCCTACTCTCTAAGTCCAAATCCGCCTCTGTTGACAAAGACGGTTCCCCCAGTCCCAGCGGGCAGGATTCCACTGACACTGAGAGCAACAACGAGGAGCGTTCGGCCGGGGTAAGCGGAACAGCAGCCACAGGTGGTCTCATCTACCTGACCAACCACATGGCTCCAGGTATGAGAAATGGAGGCCTGCCAGGGGTAAAGGAAGAACAACACCGGCAGTTTGAGGCTTTGCGAGCAGCAGGAATGGATTTGAGTATAGCGTCATCAGAAGGATTTAAGGTGCTAAGTGGAGATGGAGAAGAATTGAGGGCGTACCGCTGTATCCACTGCAGAGTTTTGTTCCTGGATCATGTCATGTACACCATCCACATGGGCTGTCATGGCTTCCGAGACCCCTTTGAGTGCAACCTATGCGGGTACCGCAGTCAGGACCGTTATGAGTTCTCATCGCACATCACACGTGGAGAGCACCGCATCTGA
modifications: fused to EGFP; nucleotide sequence of ikzf1-007 Ikaros variant; 775 n = A,T,C or G
notes: Ikaros variant lacking exons 4 and 7, overexpressed as fused Ikzf1:EGFP protein in zebrafish embryos
As to B2, the brain development entry was “reduction of brain development”.
